Changes are numbered by the printed parent chain.
Tests used:
[1] = target: T1, RR (KdpE-like response regulator) (Deinococcus radiodurans R1 ATCC BAA-816) (UniProt Q9RZP1); assay: EMSA; details: 20 mM HEPES pH 7.6, 10 mM (NH4)2SO4, 30 mM KCl, 1 mM EDTA, 1 mM DTT, 0.2% Tween20, 37°C 1 h; 10% native PAGE in 0.5X TBE
T1 sequence: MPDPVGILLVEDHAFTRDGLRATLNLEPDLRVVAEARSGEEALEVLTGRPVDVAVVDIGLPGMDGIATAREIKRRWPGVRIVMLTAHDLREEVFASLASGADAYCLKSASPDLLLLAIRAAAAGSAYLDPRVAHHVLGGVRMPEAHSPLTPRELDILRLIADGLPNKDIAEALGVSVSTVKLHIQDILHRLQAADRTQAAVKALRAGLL

[2] = target: T2, RR (KdpE-like response regulator) (Deinococcus radiodurans R1 ATCC BAA-816, UniProt Q9RZP1 1-209); assay: EMSA; details: apparent; Hill coefficient 1.36 ± 0.17; unphosphorylated; 20 mM HEPES pH 7.6, 10 mM (NH4)2SO4, 30 mM KCl, 1 mM EDTA, 1 mM DTT, 0.2% Tween20, 37°C 1 h; 10% native PAGE in 0.5X TBE
T2 sequence: T1 sequence with R131Q

[3] = target: T2, RR (KdpE-like response regulator); assay: EMSA; 12% native PAGE; 20 mM HEPES pH 7.6, 10 mM (NH4)2SO4, 30 mM KCl, 1 mM EDTA, 1 mM DTT, 0.2% Tween20, 37°C 1 h; 10% native PAGE in 0.5X TBE; details: protein: recombinant; tags: C-terminal His tag (pET29b NdeI/XhoI, Ni-NTA; position implied by vector); chain copies: 2; label: DIG-ddUTP; blunt

“GGCCTTGATGAGGTTCTTGTCCTTGGCGTACTTGTTGAGCACGCGGGTGTACGCCGTCTTGAAGCCGGTCAGCGGGGTGCCGCCGTCGCGGGTGCGGATCATGTTGGCGTAGGTCAGGATGTTGTCGCTGGCGTAGGTGTTGGCGTGGATAAA (double strand) [nsDNA (DR_0906 fragment)]” was tested. Which binding [1] did it give?
Its binding is “no binding”.

With PkdpB-200 as the molecule, how does the Kd [2] read?
The Kd was 3.62 µM.

B1: PkdpB-38 (dsDNA)
DNA 1: AACGGCGCTATGAGTCTTTCTTCTTTCCGGTGGCGGCC
DNA 2: GGCCGCCACCGGAAAGAAGAAAGACTCATAGCGCCGTT
Does B1 bind [3]?
Result: binds
